The data set deals with T1, DnaA wild-type (Escherichia coli) (UniProt P03004).
T1 sequence: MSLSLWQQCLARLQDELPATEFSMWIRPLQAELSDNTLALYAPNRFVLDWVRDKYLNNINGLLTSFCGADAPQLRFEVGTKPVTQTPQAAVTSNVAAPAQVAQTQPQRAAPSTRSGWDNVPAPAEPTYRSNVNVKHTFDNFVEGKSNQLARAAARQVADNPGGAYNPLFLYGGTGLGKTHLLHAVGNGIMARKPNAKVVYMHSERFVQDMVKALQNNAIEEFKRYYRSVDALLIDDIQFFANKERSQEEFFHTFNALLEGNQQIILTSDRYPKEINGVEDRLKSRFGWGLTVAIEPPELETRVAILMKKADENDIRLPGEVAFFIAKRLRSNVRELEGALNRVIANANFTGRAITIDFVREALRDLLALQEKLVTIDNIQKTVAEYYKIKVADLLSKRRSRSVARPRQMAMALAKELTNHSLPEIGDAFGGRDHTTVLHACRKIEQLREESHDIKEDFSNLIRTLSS
Description: EMSA. As to conditions: EMSA oriC/PdnaA: 20 mM HEPES-KOH pH 8.0, 5 mM Mg acetate, 1 mM EDTA, 4 mM DTT, 0.2% Triton X-100, 5% glycerol, 0.5 mg/ml BSA, 2 mM ATP, 20 C; DARS1: 20 mM ….

Turning to “GGGGATAGGGGCTGGAGACAGTTATCCACTATTCCTGTGGATAACCATGTGTATTAGAGTTAGAAAACACGAGGCAAGCGAGAGAATACGCGGCTTGCACG (double strand) [DARS1]”, the binding entry is “binds”.

The values above are taken from paper PMC5397419.
